Data as given in US8217140B2, “Peptides capable of binding to serum proteins and compounds, constructs and polypeptides comprising the same” (Ablynx N.V., priority 2008, dated 2012).

B1: 2D3-9GS-59C2-MycHis: SEQ ID NO: 160 (protein)
chain: EVQLVESGGSLVQPGGSLRLSCAASGFTFDDYAMSWVRQVPGKGLEWVSSINWSGTHTDYADSVKGRFTISRNNANNTLYLQMNSLKSEDTAVYYCAKNWRDAGTTWFEKSGSAGQGTQVTVSSGGGGSGGGSAAARDWDFDVFGGGTPVGGAAAEQKLISEEDLNGAAHHHHHH
modifications: Myc-His tag
B2: 2D3-9GS-59F2-MycHis: SEQ ID NO: 159 (protein)
chain: EVQLVESGGSLVQPGGSLRLSCAASGFTFDDYAMSWVRQVPGKGLEWVSSINWSGTHTDYADSVKGRFTISRNNANNTLYLQMNSLKSEDTAVYYCAKNWRDAGTTWFEKSGSAGQGTQVTVSSGGGGSGGGSAAARYWDFDVFGGGTPVGGAAAEQKLISEEDLNGAAHHHHHH
modifications: Myc-His tag
B3: 12A2_sv1-AAA-12A2_sv1 (protein)
chain: DVQLVESGGGLVQPGGSLRLSCAASGRTFSYNPMGWFRQAPGKGRELVAAISRTGGSTYYPESVEGRFTISRDNAKRTVYLQMNSLRAEDTAVYYCAAAGVRAEQGRVRTLPSEYTFWGQGTQVTVSSAAAEVQLVESGGGLVQPGGSLRLSCAASGRTFSYNPMGWFRQAPGKGRELVAAISRTGGSTYYPESVEGRFTISRDNAKRTVYLQMNSLRAEDTAVYYCAAAGVRAEQGRVRTLPSEYTFWGQGTQVTVSS
B4: 12A2_sv1-9GS-59C2-9GS-12A2_sv1 (protein)
chain: DVQLVESGGGLVQPGGSLRLSCAASGRTFSYNPMGWFRQAPGKGRELVAAISRTGGSTYYPESVEGRFTISRDNAKRTVYLQMNSLRAEDTAVYYCAAAGVRAEQGRVRTLPSEYTFWGQGTQVTVSSGGGGSGGGSRDWDFDVFGGGTPVGGGGGGSGGGSEVQLVESGGGLVQPGGSLRLSCAASGRTFSYNPMGWFRQAPGKGRELVAAISRTGGSTYYPESVEGRFTISRDNAKRTVYLQMNSLRAEDTAVYYCAAAGVRAEQGRVRTLPSEYTFWGQGTQVTVSS

Assays:
[1] = target: Cynomolgus monkey serum albumin (Macaca fascicularis, UniProt A2V9Z4); assay: Surface plasmon resonance (BIAcore 3000) of MycHis tagged 2D3-Expedite fusions, Example 10; type: binding; details: for ka / koff (dissociation rate constant): Cynomolgus monkey serum albumin; for ka: chip ~3000 RU; for binding to CSA compared to 2D3-9GS-56E4-MycHis: FIG. 8B
Cynomolgus monkey serum albumin, sequence (A2V9Z4 25-608): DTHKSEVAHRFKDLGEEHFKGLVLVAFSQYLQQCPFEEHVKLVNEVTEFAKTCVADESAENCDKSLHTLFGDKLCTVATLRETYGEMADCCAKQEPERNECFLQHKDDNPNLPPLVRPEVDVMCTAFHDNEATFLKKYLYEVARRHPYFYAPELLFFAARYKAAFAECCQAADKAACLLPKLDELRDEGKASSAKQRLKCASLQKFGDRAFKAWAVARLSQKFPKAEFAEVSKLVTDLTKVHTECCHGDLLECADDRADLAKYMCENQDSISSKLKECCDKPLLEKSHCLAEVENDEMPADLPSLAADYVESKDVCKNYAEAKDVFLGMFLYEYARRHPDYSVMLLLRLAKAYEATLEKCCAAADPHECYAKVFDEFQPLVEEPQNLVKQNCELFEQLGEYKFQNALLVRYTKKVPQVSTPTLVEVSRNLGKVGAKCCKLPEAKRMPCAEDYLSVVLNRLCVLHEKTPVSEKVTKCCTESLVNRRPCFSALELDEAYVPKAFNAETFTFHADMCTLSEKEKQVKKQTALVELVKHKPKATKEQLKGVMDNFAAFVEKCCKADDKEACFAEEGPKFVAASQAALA
Method: (§1) The binding of the resulting 2D3-9GS-56E4-MycHis, 2D3-9GS-59C2-MycHis, 2D3-9GS-59F2-MycHis and 2D3-9GS-59H12-MycHis fusion proteins to human and cynomolgus serum albumin (HSA and CSA respectively) was determined using surface plasmon resonance analysis. For this purpose, binding to HSA and CSA was assessed in BIAcore™ 3000, by injecting concentration series of the fusion proteins ranging from 2 μM to 200 nM on a CM5 chip coated with ˜3000 RU HSA or CSA. Coating of the chip (CM5) was performed by amine coupling using NHS/EDC for activation and ethanolamine for deactivation (Biacore amine coupling kit). HBS-EP was used as flow buffer at a rate of 45 μl min-1. 90 μl of sample was injected for 120 s.

[2] = target: human serum albumin (Homo sapiens, UniProt P02768); assay: as above; type: binding; details: for binding to HSA compared to 2D3-9GS-56E4-MycHis: FIG. 8A; for ka / dissociation rate constant (koff): Human serum albumin; for ka: chip ~3000 RU
Method: as §1

[3] = cynomolgus monkey, in vivo; for AUCinf / C0: 2 mg/kg
Method: The pharmacokinetic profile of the constructs was analyzed in male cynomolgus monkeys of approximately 3 to 4 years old and was compared to the reference (SEQ ID NO:165). The constructs and the control were each injected in three monkeys at a dose of 2 mg/kg via an intravenous bolus injection. Blood samples were taken at predose, 5 min, 20 min, 1 h, 2 h, 4 h, 8 h (test day 1) after administration and at test days 2, 3, 5, 7, 9, 12, 15, 18, 21, 24, 27, 30, 33. In order to obtain at least 1 mL plasma per animal per sampling time, a sufficient volume of whole blood was withdrawn per sampling time. Plasma was collected after whole blood centrifugation for 30 minutes at 2200 g at room temperature (RT). The plasma samples were stored at −80° C. until analysis.
For bioanalytical determination of constructs and control article in monkey plasma, plasma samples were tested for levels of constructs and the control using ELISA based PK assays. The detection of control and constructs in the ELISA assays is based on the binding of these Nanobodies with vWF and the assay set-ups are as such that total vWF-binding Nanobody is detected.
For the reference (SEQ ID NO:165) and the construct of SEQ ID NO:167, 96-well microtiter plates (Maxisorp, Nunc, Wiesbaden, Germany) were coated overnight at 4° C. with neutravidin (Pierce) in 10:10 buffer at 3 μg/ml. Wells were aspirated and blocked for 1 hour at RT with PBS/1% casein. After this blocking step, wells were washed with PBS/0.05% Tween20. A biotinylated bivalent Nanobody against the constructs was added to the neutravidin coated plate at 2 μg/ml in PBS/0.1% casein and incubated for 1 hour at RT. After the incubation step of this capture tool, wells were washed 3 times with PBS/0.05% Tween20.
Preparations of the standards, QC samples and dilutions of the test samples were performed in a non-coated (polypropylene) plate. For the standard curve and QC-samples, solutions at the required concentrations were prepared in PBS/0.1% casein and spiked into 100% monkey plasma. To prepare standards and QC samples, a 1/100 dilution of the pure monkey plasma dilutions was made in IgM-Reducing Agent (Immunochemistry Technologies, Bloomington, USA) supplemented with 2.5% pooled human plasma (referred to as sample diluent). For the test samples, dilution factors for the test samples were estimated, and ranged between 1/100 to 1/9000 for the reference of SEQ ID NO:165 tests and between 1/100 and 12000 for the construct of SEQ ID NO: 167. Samples were diluted 1/100 in sample diluent in a first step, and if needed, further dilution was done in sample diluent supplemented with 1% cynomolgus plasma.
Standards, QC samples and diluted test samples were transferred onto the coated plate and incubated for 1 hour at RT. Afterwards the plates were washed followed by a complexation step with purified vWF (ZLB Behring). vWF diluted to 2.5 μg/ml for the assay for the reference of SEQ ID NO:165 and to 3 μg/ml for the assay for the construct of SEQ ID NO: 167 in PBS/0.1% casein was incubated on the plates for 30 minutes at RT. Plates were washed and Nanobody/vWF complexes bound to the capture tool detected with Rabbit anti-human vWF Ab (Dako, Denmark), diluted 1/2000 in PBS/0.1% casein and incubated for 30 minutes at RT. After washing, a 1/15000 dilution in PBS/0.1% casein of Horse-Radish-Peroxidase labelled goat anti-rabbit Ab (Dako, Denmark) was added to the plate and incubated for 30 minutes at RT. The enzyme coupled to the Ab catalyzes a chemical reaction with the substrate sTMB (3,3′,5,5′-tetramethylbenzidine, SDT reagents, Brussels, Belgium), resulting in a colorimetric change. After stopping this reaction after 10 minutes using HC1 (1N), the intensity of the colour was measured using a spectrophotometer at 450 nm. […]

[4] = system: VWF; assay: Pharmacodynamic profile: ristocetin cofactor activity assay (% RICO) after i.v. administration; type: in vivo, Cynomolgus monkey; details: for Tonset values: estimated, i.v. application; for AUC below T / Time below T: threshold 20% RICO, male Cynomolgus monkey, mean n = 3; for AUC below T / Time below T / Tonset / Toffset: i.v. bolus 2 mg/kg; for Tonset: time % RICO first drops below threshold; for Toffset: time % RICO first returns above threshold
Method: For the constructs used in Example 14, pharmacodynamic characteristics upon compound administration were measured by means of a ristocetin cofactor activity assay (Biopool). The ristocetin cofactor activity is a functional assay for VWF, measuring the capacity of VWF to interact with the platelet receptor glycoprotein Ib using ristocetin as a modulator.
For pharmacodynamic data analysis, descriptive statistics (mean and SD) were calculated per dose group and per sampling time point using Microsoft Excel 2007. Response parameters and associated statistics for the overall time course were calculated by noncompartmental analysis of the response-time data using WinNonlin Pro 5.1 (Pharsight Corporation, USA; 2006). The non-compartmental analysis was based on a model for pharmacodynamic data (Model 220). The threshold value was set at 20% based on extensive historical PK/PD data on the vWF-0001 compound. Preclinical studies have shown that a complete inhibition of the pharmacodynamic marker are correlated with full antithrombotic efficacy. The following main pharmacodynamic parameters were determined: time below the threshold (Time below T), area under the threshold (AUC below T), time at which the % RICO first drops below the threshold (Tonset), and time at which the % RICO first returns back above the threshold (Toffset).

| Molecule | ka [1] | koff (dissociation rate constant) [1] | binding to CSA compared to 2D3-9GS-56E4-MycHis [1] | binding to HSA compared to 2D3-9GS-56E4-MycHis [2] | ka [2] | dissociation rate constant (koff) [2] | plasma level after the initial drop [3] | plasma level directly after i.v. injection ([3]; iv) | AUCinf ([3]; iv) | C0 ([3]; iv) | Tonset values [4] | AUC below T [4] | Time below T [4] | Tonset [4] | Toffset [4] | Vdss lower relative to vWF0001 [3] | dominant half-life (t½ dominant) increase relative to vWF0001 [3] | mean CL decrease compared to the control [3] | mean AUC under the threshold increase relative to vWF0001 ([4]; i.v. bolus) | time below the threshold increase relative to vWF0001 ([4]; i.v. bolus) |
| --- | --- | --- | --- | --- | --- | --- | --- | --- | --- | --- | --- | --- | --- | --- | --- | --- | --- | --- | --- | --- |
| B1 | 2.75E+03 1/ms | 0.00213 s⁻¹ | improved binding | improved binding | 3.73E+03 1/ms | 0.00179 s⁻¹ | – | – | – | – | – | – | – | – | – | – | – | – | – | – |
| B2 | 4.85E+03 1/ms | 0.00504 s⁻¹ | improved binding | improved binding | 6.14E+03 1/ms | 0.00351 s⁻¹ | – | – | – | – | – | – | – | – | – | – | – | – | – | – |
| B3 | – | – | – | – | – | – | ~2000 ng/mL | about 45 ug/ml | 62.6 µg·h/mL | 45300 ng/mL | ~5 min | 6.60 % RICO * h | 1.21 h | 0.077 h | 1.28 h | – | – | – | – | – |
| B4 | – | – | – | – | – | – | – | – | 1320 µg·h/mL | 48900 ng/mL | ~5 min | 379 % RICO * h | 39.9 h | 0.079 h | 40.0 h | 12 fold | 70 fold | 22 fold | 57 fold | 33 fold |
